{"source": "paper PMC4970216", "substrate": "C[C@]12CC[C@@H]3c4ccc(O)cc4CC[C@H]3[C@@H]1CC[C@@H]2O[C@@H]1O[C@H](C(=O)O)[C@@H](O)[C@H](O)[C@H]1O", "assay": "cells, lysate or membranes", "assay_type": "cell-based, Homo sapiens", "data": [{"protein": "Organic anion transporting polypeptide (OATP) 1B1 (Homo sapiens) (protein) MDQNQHLNKTAEAQPSENKKTRYCNGLKMFLAALSLSFIAKTLGAIIMKSSIIHIERRFEISSSLVGFIDGSFEIGNLLVIVFVSYFGSKLHRPKLIGIGCFIMGIGGVLTALPHFFMGYYRYSKETNINSSENSTSTLSTCLINQILSLNRASPEIVGKGCLKESGSYMWIYVFMGNMLRGIGETPIVPLGLSYIDDFAKEGHSSLYLGILNAIAMIGPIIGFTLGSLFSKMYVDIGYVDLSTIRITPTDSRWVGAWWLNFLVSGLFSIISSIPFFFLPQTPNKPQKERKASLSLHVLETNDEKDQTANLTNQGKNITKNVTGFFQSFKSILTNPLYVMFVLLTLLQVSSYIGAFTYVFKYVEQQYGQPSSKANILLGVITIPIFASGMFLGGYIIKKFKLNTVGIAKFSCFTAVMSLSFYLLYFFILCENKSVAGLTMTYDGNNPVTSHRDVPLSYCNSDCNCDESQWEPVCGNNGITYISPCLAGCKSSSGNKKPIVFYNCSCLEVTGLQNRNYSAHLGECPRDDACTRKFYFFVAIQVLNLFFSALGGTSHVMLIVKIVQPELKSLALGFHSMVIRALGGILAPIYFGALIDTTCIKWSTNNCGTRGSCRTYNSTSFSRVYLGLSSMLRVSSLVLYIILIYAMKKKYQEKDINASENGSVMDEANLESLNKNKHFVPSAGADSETHC", "values": [{"measurement": "Km", "value": "7.20 ± 0.57", "unit": "µM"}]}]}
